Reference: US20050019833A1, “Proteins capable of binding to environmental hormones and process for producing the same” (priority 2002, published 2005)
Substitutions are numbered along the chain they refer to.

Columns and labels:
[1] = indirect competitive ELISA, nonylphenoxyacetic acid standard solution; type: binding; settings: FIG. 5; cross-reactivity (%)=[IC50 of NP10EO/IC50 of test compound]x100
Procedure: (§1) A nonylphenoldecaethoxylate (NPLOEO) standard solution was used in (A), a nonylphenoxyacetic acid (NPLEC) standard solution was used in (B), and a nonylphenol (NP) standard solution was used in (C).
(§2) Moreover, a nonylphenoldecaethoxylate (NPLOEO) standard solution was used in (A) and (B), a nonylphenoxyacetic acid (NPLEC) standard solution was used in (C) and (D) and a nonylphenol (NP) standard solution was used in (E) and (F).
(§3) A conjugate (5 μg/mL) of hapten and bovine serum albumin (BSA) (100 μL/each well) was added to a 96-well microtiter plate and stood at 4° C. overnight. After removing the liquid from the well, 300 μL of Block Ace (purchased from Dainippon Pharmaceutical Co., Ltd.) 4-fold diluted with distillated water was added to each well and stood at 4° C. overnight. After removing the liquid from the well, a standard solution (50 μL) of nonylphenol decaethoxylate stepwise diluted with phosphate buffer (10 mM sodium phosphate (purchased from Nacalai Tesque, Inc.), 150 mM NaCl, pH 7.2) was added to each well. […] The mixture was incubated at 25° C. for 1 hr and each well was washed 4 times with a phosphate buffer. Then, 100 μL of mouse anti-HSV tagged antibody (purchased from Amersham Pharmacia Biotech), diluted with a phosphate buffer to 0.1 μg/mL, was added to each well and the mixture was incubated at 25° C. for 1 hr. […] The absorbance at wavelength of 450 nm was measured.

[2] = indirect competitive ELISA, nonylphenol standard solution; type: binding; settings: FIG. 5; cross-reactivity (%)=[IC50 of NP10EO/IC50 of test compound]x100
Procedure: as §1, §2, §3

B1: anti-alkylphenol monoclonal antibody: monoclonal antibody (IgG2b, kappa) produced by mouse hybridoma AP-14 (FERM BP-6633) (antibody, V domains shown)
VH: QVQLQQSAAELARPGASVKMSCKASGYRFTRYTMHWVKQRPGQGLEWIGNINPSSGDTEYNQKFKDKTTLTADKSSTTAYMQLSSLTSEDSAVYYCATPIFYYGSRYVRYEMDYWGQGTSVTVSS
VL: DIVMTQAAFSNPVTLGTSTSISCRSTKSLLHSNGITYLYWYLQKPGQSPQLLIYQMSNLASGVPDRFSSSGSGTDFTLRISRVEAEDVGVYYCAQNLELPYTFGGGTKLEIKR
modifications: Mouse
[1]
  cross-reactivity with NP1EC: shows cross-reactivity
[2]
  cross-reactivity with NP: shows cross-reactivity

B2: anti-alkylphenolethoxylate monoclonal antibody: monoclonal antibody (IgG1, kappa) produced by mouse hybridoma MOF3-139 (FERM BP-6059) (antibody, V domains shown)
VH: QVQLQQSGAELMKPGASVKISCKVTGYTFRSYWIEWVKQRPGHGLEWIGEILVGSGSTKYNEKFKGKATITAQTSSNTVYMQLSSLTSEDSAVYYCARPFFGSRYDYSDFWGQGTTLTVSS
VL: B1 VL with T17S, T19A, T26S, S32R, L51V
modifications: Mouse
[1]
  cross-reactivity with NP1EC: hardly shows cross-reactivity
[2]
  cross-reactivity with NP: hardly shows cross-reactivity
